Results on one substance are retold here after article PMC3686892.

In this series the test system is C=C(OP(=O)(O)O)C(=O)O. The series can be described thus: anti-pHis dot-blot assay of autophosphorylation velocity. The conditions noted are these: phosphoryl donor; n = 3. Format: biochemical, Escherichia coli.

Consider enzyme I (PtsI) (Escherichia coli K-12), for which the Km stood at 135 ± 30 µM.

The Km is the substrate concentration at which the rate is half of its maximum.
